For data set [1], the system named is HeLa Kyoto. The data set is described as follows: solubility change mitosis vs G1/S (difference of NP-40 vs SDS log2 ratios) (log2 ratio difference); higher = more soluble in mitosis.
Data set [2] concerns HeLa Kyoto. The data set is described as follows: thermal stability score vs G1/S (z-score of summed log2 fold changes over temperatures); higher = more thermally stable than in G1/S.
The subject of data set [3] is HeLa Kyoto. In words: solubility in G1/S (NP-40 vs SDS abundance) (log2 ratio); higher = more soluble. The following applies: cell cycle stage: G1/S.
[4] abbreviates: cell cycle stage: early G1 (4.5 h after nocodazole release).

This note sets out measurements from the supplement of paper PMC5998384.
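Throughout, for solubility change mitosis vs G1/S (difference of NP-40 vs SDS log2 ratios): synchronized HeLa Kyoto cells (double thymidine block for G1/S, nocodazole release for mitosis), protein amounts in NP-40 versus SDS lysates quantified by mass spectrometry, three biological replicates.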
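Throughout, for solubility in G1/S (NP-40 vs SDS abundance): HeLa Kyoto cells arrested at G1/S by double thymidine block, proteins quantified by TMT10plex mass spectrometry in mild NP-40 versus SDS extracts, three biological replicates.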
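Throughout, for thermal stability score vs G1/S (z-score of summed log2 fold changes over temperatures): synchronized HeLa Kyoto cells, proteins quantified by TMT10plex mass spectrometry, three biological replicates, mitosis taken 0.5 h after nocodazole release, G1/S directly after double thymidine block.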

MFSD12, sequence (chain, as listed by the source): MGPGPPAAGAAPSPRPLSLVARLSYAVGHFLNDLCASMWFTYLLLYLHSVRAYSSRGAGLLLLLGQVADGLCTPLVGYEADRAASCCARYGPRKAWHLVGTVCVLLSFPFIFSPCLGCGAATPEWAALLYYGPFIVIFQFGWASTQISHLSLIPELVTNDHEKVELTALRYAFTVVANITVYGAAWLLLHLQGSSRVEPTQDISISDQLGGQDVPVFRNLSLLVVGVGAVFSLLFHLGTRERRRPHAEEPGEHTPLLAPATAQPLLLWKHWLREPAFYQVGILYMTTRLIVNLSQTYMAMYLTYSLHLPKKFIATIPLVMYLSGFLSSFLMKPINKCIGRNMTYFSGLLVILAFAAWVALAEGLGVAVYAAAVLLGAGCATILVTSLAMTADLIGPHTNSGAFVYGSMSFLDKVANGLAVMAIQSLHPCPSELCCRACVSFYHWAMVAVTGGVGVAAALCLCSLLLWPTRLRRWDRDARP

For the substance “MEREPGAAGVRRALGRRLEAVLASRSEANAVFDILAVLQSEDQEEIQEAVRTCSRLFGALLERGELFVGQLPSEEMVMTGSQGATRKYKVWMRHRYHSCCNRLGELLGHPSFQVKELALSALLKFVQLEGAHPLEKSKWEGNYLFPRELFKLVVGGLLSPEEDQSLLLSQFREYLDYDDTRYHTMQAAVDAVARVTGQHPEVPPAFWNNAFTLLSAVSLPRREPTVSSFYVKRAELWDTWKVAHLKEHRRVFQAMWLSFLKHKLPLSLYKKVLLIVHDAILPQLAQPTLMIDFLTRACDLGGALSLLALNGLFILIHKHNLEYPDFYRKLYGLLDPSVFHVKYRARFFHLADLFLSSSHLPAYLVAAFAKRLARLALTAPPEALLMVLPFICNLLRRHPACRVLVHRPHGPELDADPYDPGEEDPAQSRALESSLWELQALQRHYHPEVSKAASVINQALSMPEVSIAPLLELTAYEIFERDLKKKGPEPVPLEFIPAQGLLGRPGELCAQHFTLS [NOC4L]”, the “solubility change mitosis (log2)” value in the data set with HeLa Kyoto [1] is 0.579. The thermal stability score was -3.25e-17 in the data set with HeLa Kyoto [2] (setting [4]) and 3.03e-17 in the data set on HeLa Kyoto [2] (cell cycle stage: mitosis). The “solubility in G1/S (log2)” value in the data set with HeLa Kyoto [3] is -1.47.

As for MFSD12, the “solubility change mitosis (log2)” value in the data set on HeLa Kyoto [1] is -0.237. For the same substance, the results for the thermal stability score in the data set with HeLa Kyoto [2] (setting [4]) and with HeLa Kyoto [2] (cell cycle stage: mitosis) were 0.154 and 0.3, respectively. Also, in the data set on HeLa Kyoto [3], the “solubility in G1/S (log2)” value was -0.246.

In the case of “MGAVLGVFSLASWVPCLCSGASCLLCSCCPNSKNSTVTRLIYAFILLLSTVVSYIMQRKEMETYLKKIPGFCEGGFKIHEADINADKDCDVLVGYKAVYRISFAMAIFFFVFSLLMFKVKTSKDLRAAVHNGFWFFKIAALIGIMVGSFYIPGGYFSSVWFVVGMIGAALFILIQLVLLVDFAHSWNESWVNRMEEGNPRLWYAALLSFTSAFYILSIICVGLLYTYYTKPDGCTENKFFISINLILCVVASIISIHPKIQEHQPRSGLLQSSLITLYTMYLTWSAMSNEPDRSCNPNLMSFITRITAPTLAPGNSTAVVPTPTPPSKSGSLLDSDNFIGLFVFVLCLLYSSIRTSTNSQVDKLTLSGSDSVILGDTTTSGASDEEDGQPRRAVDNEKEGVQYSYSLFHLMLCLASLYIMMTLTSWYSPDAKFQSMTSKWPAVWVKISSSWVCLLLYVWTLVAPLVLTSRDFS [SERINC3]”, the “solubility change mitosis (log2)” value in the data set on HeLa Kyoto [1] was determined as 0.0994. In addition, the thermal stability score in the data set with HeLa Kyoto [2] (setting [4]) is -2.7; in the data set with HeLa Kyoto [2] (cell cycle stage: mitosis) it was -4.19. In addition, the “solubility in G1/S (log2)” value in the data set with HeLa Kyoto [3] was -0.0916.

Consider “MGDKGTRVFKKASPNGKLTVYLGKRDFVDHIDLVDPVDGVVLVDPEYLKERRVYVTLTCAFRYGREDLDVLGLTFRKDLFVANVQSFPPAPEDKKPLTRLQERLIKKLGEHAYPFTFEIPPNLPCSVTLQPGPEDTGKACGVDYEVKAFCAENLEEKIHKRNSVRLVIRKVQYAPERPGPQPTAETTRQFLMSDKPLHLEASLDKEIYYHGEPISVNVHVTNNTNKTVKKIKISVRQYADICLFNTAQYKCPVAMEEADDTVAPSSTFCKVYTLTPFLANNREKRGLALDGKLKHEDTNLASSTLLREGANREILGIIVSYKVKVKLVVSRGGLLGDLASSDVAVELPFTLMHPKPKEEPPHREVPENETPVDTNLIELDTNDDDIVFEDFARQRLKGMKDDKEEEEDGTGSPQLNNR [ARRB1]”, for which the “solubility change mitosis (log2)” value in the data set with HeLa Kyoto [1] is -0.0694. The thermal stability score was -0.748 in the data set with HeLa Kyoto [2] (setting [4]) and -0.986 with HeLa Kyoto [2] (cell cycle stage: mitosis). For the same substance, in the data set with HeLa Kyoto [3], the “solubility in G1/S (log2)” value was found to be 0.139.

For the substance “MGDMKTPDFDDLLAAFDIPDPTSLDAKEAIQTPSEENESPLKPPGICMDESVSLSHSGSAPDVPAVSVIVKNTSRQESFEAEKDHITPSLLHNGFRGSDLPPDPHNCGKFDSTFMNGDSARSFPGKLEPPKSEPLPTFNQFSPISSPEPEDPIKDNGFGIKPKHSDSYFPPPLGCGAVGGPVLEALAKFPVPELHMFDHFCKKEPKPEPLPLGSQQEHEQSGQNTVEPHKDPDATRFFGEALEFNSHPSNSIGESKGLARELGTCSSVPPRQRLKPAHSKLSSCVAALVALQAKRVASVTKEDQPGHTKDLSGPTKESSKGSPKMPKSPKSPRSPLEATRKSIKPSDSPRSICSDSSSKGSPSVAASSPPAIPKVRIKTIKTSSGEIKRTVTRILPDPDDPSKSPVGSPLGSAIAEAPSEMPGDEVPVEEHFPEAGTNSGSPQGARKGDESMTKASDSSSPSCSSGPRVPKGAAPGSQTGKKQQSTALQASTLAPANLLPKAVHLANLNLVPHSVAASVTAKSSVQRRSQPQLTQMSVPLVHQVKKAAPLIVEVFNKVLHSSNPVPLYAPNLSPPADSRIHVPASGYCCLECGDAFALEKSLSQHYGRRSVHIEVLCTLCSKTLLFFNKCSLLRHARDHKSKGLVMQCSQLLVKPISADQMFVSAPVNSTAPAAPAPSSSPKHGLTSGSASPPPPALPLYPDPVRLIRYSIKCLECHKQMRDYMVLAAHFQRTTEETEGLTCQVCQMLLPNQCSFCAHQRIHAHKSPYCCPECGVLCRSAYFQTHVKENCLHYARKVGYRCIHCGVVHLTLALLKSHIQERHCQVFHKCAFCPMAFKTASSTADHSATQHPTQPHRPSQLIYKCSCEMVFNKKRHIQQHFYQNVSKTQVGVFKCPECPLLFVQKPELMQHVKSTHGVPRNVDELSSLQSSADTSSSRPGSRVPTEPPATSVAARSSSLPSGRWGRPEAHRRVEARPRLRNTGWTCQECQEWVPDRESYVSHMKKSHGRTLKRYPCRQCEQSFHTPNSLRKHIRNNHDTVKKFYTCGYCTEDSPSFPRPSLLESHISLMHGIRNPDLSQTSKVKPPGGHSPQVNHLKRPVSGVGDAPGTSNGATVSSTKRHKSLFQCAKCSFATDSGLEFQSHIPQHQVDSSTAQCLLCGLCYTSASSLSRHLFIVHKVRDQEEEEEEEAAAAEMAVEVAEPEEGSGEEVPMETRENGLEECAGEPLSADPEARRLLGPAPEDDGGHNDHSQPQASQDQDSHTLSPQV [ZNF592]”, the “solubility change mitosis (log2)” value in the data set with HeLa Kyoto [1] amounted to 0.109. Moreover, the thermal stability score was -0.704 with HeLa Kyoto [2] (setting [4]) and -1.78 with HeLa Kyoto [2] (cell cycle stage: mitosis). In addition, the “solubility in G1/S (log2)” value in the data set on HeLa Kyoto [3] was -0.283.
